Changes are numbered by the printed parent chain. Names may count otherwise.

The results in this text go back to article PMC6168553 (Nature Communications, 2018).

Series [1] deals with the molecule itself. Briefly: cryo-EM structure; helical reconstruction of NOD2CARDS^s-RIP2CARD filaments, filament ends left out; 3.94 Å.
Series [2] deals with the molecule itself. Briefly: negative-stain EM; amylose eluate (with co-purified NOD2CARDS^s) at 2.5 mg ml^−1, polymerization stimulated by proteases for 4 h at room temperature.
Series [3] deals with the molecule itself. The experiment in a line: negative-stain EM; void-volume fraction of size-exclusion chromatography after cleavage of the MBP tag by TEV.
Series [4] deals with T1, NOD2ΔLRR (residues 1-619), MBP tag cleaved (human, UniProt Q9HC29 1-619).
T1 construct: NOD2 (nucleotide oligomerization domain 2), human, CARDS and NOD without the LRR domain, residues 1-619; A less aggregated SEC fraction was used; the protein forms soluble aggregates; also called MBP-NOD2ΔLRR before cleavage; source: sf21 insect cells (baculovirus), purified (amylose resin, TEV cleavage, size exclusion chromatography); not shown: MBP, N-terminal, cleaved
The experiment in a line: immuno-gold labelling with negative-stain EM; purified NOD2ΔLRR mixed with a 50-fold excess of MBP-RIP2CARD, polymerization induced by TEV; rabbit anti-NOD2 and gold-conjugated anti-rabbit. Particulars: both partners purified.

T1 sequence (Q9HC29 1-619, stated change not applied): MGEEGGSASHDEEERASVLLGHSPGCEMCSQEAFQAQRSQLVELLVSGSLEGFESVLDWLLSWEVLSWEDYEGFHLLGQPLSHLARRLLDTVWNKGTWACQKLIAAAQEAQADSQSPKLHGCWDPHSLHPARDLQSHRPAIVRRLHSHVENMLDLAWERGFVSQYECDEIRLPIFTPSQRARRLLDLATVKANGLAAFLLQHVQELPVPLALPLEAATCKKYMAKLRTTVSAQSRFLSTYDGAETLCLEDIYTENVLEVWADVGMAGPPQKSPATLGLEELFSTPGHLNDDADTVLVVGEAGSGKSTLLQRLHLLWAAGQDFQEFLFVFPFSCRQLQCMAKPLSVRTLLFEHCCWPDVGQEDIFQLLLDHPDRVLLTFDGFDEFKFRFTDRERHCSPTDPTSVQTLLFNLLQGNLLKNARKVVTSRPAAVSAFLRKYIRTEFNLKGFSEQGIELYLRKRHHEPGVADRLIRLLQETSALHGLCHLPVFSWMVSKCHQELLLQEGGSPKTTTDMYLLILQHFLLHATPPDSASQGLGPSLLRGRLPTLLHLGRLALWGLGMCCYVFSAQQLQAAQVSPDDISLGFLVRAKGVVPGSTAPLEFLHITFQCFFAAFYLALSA

B1: RIP2CARD (residues 431-540), wild type, HIS-MBP tag cleaved (domain or fragment, human, UniProt O43353 431-540, looked up)
chain: LQPGIAQQWIQSKREDIVNQMTEACLNQSLDALLSRDLIMKEDYELVSTKPTRTSKVRQLLDTTDIQGEEFAKVIVQKLKDNKQMGLQPYPEILVVSRSPSLNLLQNKSM
notes: RIP2 CARD domain, human, residues 431-540; The atomic model of the filament comprises residues P433 to Q518; also called RIP2CARD filament; NOD2CARDS^s-WT; source: E. coli Rosetta 2, purified (amylose resin, Superose6), HIS-MBP cleaved by P3C, Ni-NTA, dialysis; not shown: His, N-terminal, cleaved; MBP, N-terminal, cleaved
In the case of B1, in series [1], the binding result is given as “binds”.

B2: RIP2CARD (431-540) T452K, HIS-MBP tag cleaved (domain or fragment, human, UniProt O43353 431-540, looked up)
chain: B1 chain with T22K
notes: RIP2 CARD domain, human, residues 431-540; also called RIP2CARD-T452K; NOD2CARDS^s-T452K; source: E. coli Rosetta 2, co-purified with NOD2CARDS^s on amylose resin, tags cleaved by proteases; not shown: His, N-terminal, cleaved; MBP, N-terminal, cleaved
With B2, in series [2], the binding result is on record as “binds”.

B3: RIP2CARD (431-540) C455A, HIS-MBP tag cleaved (domain or fragment, human, UniProt O43353 431-540, looked up)
chain: B1 chain with C25A
notes: RIP2 CARD domain, human, residues 431-540; source: E. coli Rosetta 2, co-purified with NOD2CARDS^s on amylose resin, tags cleaved by proteases; not shown: His, N-terminal, cleaved; MBP, N-terminal, cleaved
Take B3: the binding result in series [2] is given as “binds”.

B4: RIP2CARD (431-540) T452A, HIS-MBP tag cleaved (domain or fragment, human, UniProt O43353 431-540, looked up)
chain: B1 chain with T22A
notes: as for B3
In the case of B4, in series [2], the binding result is given as “binds”.

B5: RIP2CARD (431-540) E453A, HIS-MBP tag cleaved (domain or fragment, human, UniProt O43353 431-540, looked up)
chain: B1 chain with E23A
notes: as for B3
On to B5, for which the binding result in series [2] was “binds”.

B6: RIP2CARD (431-540) C455S, HIS-MBP tag cleaved (domain or fragment, human, UniProt O43353 431-540, looked up)
chain: B1 chain with C25S
notes: RIP2 CARD domain, human, residues 431-540; also called RIP2CARD-C455S; NOD2CARDS^s-C455S; source: E. coli Rosetta 2, co-purified with NOD2CARDS^s on amylose resin, tags cleaved by proteases; not shown: His, N-terminal, cleaved; MBP, N-terminal, cleaved
For B6, the binding result in series [2] is given as “binds”.

B7: RIP2CARD (residues 435-540), MBP tag cleaved (domain or fragment, human, UniProt O43353 435-540, looked up)
chain: IAQQWIQSKREDIVNQMTEACLNQSLDALLSRDLIMKEDYELVSTKPTRTSKVRQLLDTTDIQGEEFAKVIVQKLKDNKQMGLQPYPEILVVSRSPSLNLLQNKSM
notes: RIP2 CARD domain, human, residues 435-540; Isotope-labelled for solid-state NMR; also called RIP2CARD VV; RIP2CARD filament; source: E. coli Rosetta 2 (BL21 star for NMR), purified (amylose resin), MBP cleaved by TEV; not shown: MBP, N-terminal, cleaved
As for B7, the binding result in series [3] and in series [4] was “binds” each time.
